In experiment [1] the target is T1, human GITR expressed on cells (human, UniProt Q9Y5U5 26-241).
T1 construct: whole, on cells; also called TNFRSF18; CD357
T1 sequence (looked up): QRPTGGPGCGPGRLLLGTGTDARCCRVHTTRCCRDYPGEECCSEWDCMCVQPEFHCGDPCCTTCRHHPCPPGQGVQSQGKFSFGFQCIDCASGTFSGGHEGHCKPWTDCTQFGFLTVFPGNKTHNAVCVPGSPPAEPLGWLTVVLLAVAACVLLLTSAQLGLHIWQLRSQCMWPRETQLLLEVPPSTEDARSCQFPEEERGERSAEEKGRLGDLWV
The experiment can be described thus: flow cytometry (FACS), MFI, CHO cells expressing human GITR. Here is the method: (§1) Anti-GITR/CD137 bi-specific antibodies were analyzed by FACS for their binding properties to human GITR and/or human CD137 expressed on CHO cells. Briefly, cultured cells were harvested, counted and cell viability was evaluated using the Trypan Blue exclusion method. Viable cells were then adjusted to 2×10⁶ cells per mL in PBS containing 2% BSA. 100 μL of this cell suspension were further aliquoted per well into a V-bottom 96-well plate. […] After incubation for 2 hours at 4° C., cells were centrifuged (3 min, 1000× g), washed with 250 μL/well BSA-containing FACS Stain Buffer, resuspended and incubated for an additional 1 hour at 4° C. with 100 μL/well fluorochrome-conjugated anti-IgG antibody for detection of the bisepecific antibody. Cells were then washed with 250 μL/well BSA-containing FACS Stain Buffer, resuspended in 100 μL/well FACS Stain Buffer, acquired and analyzed using a FACS machine. Binding of the bispecific antibodies to human GITR or human CD137 expressing CHO cells were evaluated and the mean fluorescence intensity is plotted in histograms or dot plots.
In general terms: A flow cytometer gives signals particle by particle.

Experiment [2] addresses T2, human CD137 expressed on cells (human, UniProt Q07011 24-255).
T2 construct: whole, on cells; also called 4-1BB; TNFRSF9
The experiment can be described thus: FACS on CHO cells expressing human CD137 (MFI). Here is the method:
as §1

Broadly, the EC50 (read off the curve) is the midpoint of the concentration-response curve. Low values mean an effect from little substance, high ones a need for much substance.

T2 sequence (Q07011 24-255): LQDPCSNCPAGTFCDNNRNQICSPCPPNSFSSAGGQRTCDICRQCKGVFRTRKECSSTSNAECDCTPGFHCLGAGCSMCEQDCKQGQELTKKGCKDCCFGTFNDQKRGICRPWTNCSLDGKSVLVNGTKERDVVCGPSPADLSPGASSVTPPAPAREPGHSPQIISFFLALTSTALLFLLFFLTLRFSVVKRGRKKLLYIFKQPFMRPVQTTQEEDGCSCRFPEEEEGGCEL

B1: TM677 (antibody, human IgG1, kappa, V domains shown)
VH: QVQLQESGPGLVKPSETLSLTCTVSGFSLTSYNVHWIRQPPGKGLEWIGVIWSGVRTDYNSVLKSRVTISVDTSKNQFSLKLSSVTAADTAVYYCARGTYDANYHDVMDAWGQGTMVTVSS
VL: DTVLTQSPATLSLSPGERATLSCRASKSVRTGMHWYQQKPGQAPRLLVYGASNLESGIPARFSGSGSGTDFTLTISSLEPEDFATYFCHQSWNHFTFGQGTKLEIKR
notes: Humanized anti-GITR antibody with VL back mutations; also called humanized LYV392 antibody (VH-1/IgG1 mut, VL-2/kappa)
Take B1: in experiment [1], the “EC50 (read off the curve)” value is approximately 0.7 µg/mL.

B2: TM685 (antibody, human IgG1, kappa, V domains shown)
VH: QVQLQESGPGLVKPSETLSLTCTVSGFSLTSYNVHWIRQPPGKGLEWIGVIWSGVRTDYNSVLKPRVTISVDTSKNQFSLKLSSVTAADTAVYYCARGTYDDNYHDVMDAWGQGTLVTVSS
VL: EIVLTQSPATLSLSPGERATLSCRASKSVRTGMHWYQQKPGQAPRLLIYGASNLESGIPARFSGSGSGTDFTLTISSLEPEDFAVYYCQQSWNHFTFGQGTKLEIKR
notes: Humanized anti-GITR antibody; also called humanized LYV396 antibody (LYV396_VH-1/IgG1mut, LYV396_VL-1/kappa)
For B2, in experiment [1], the “EC50 (read off the curve)” value was approximately 0.7 µg/mL.

B3: Ly748 (bispecific antibody, human IgG1, kappa)
heavy: QVQLVQSGAEVKKPGASVKVSCKASGYTFAGFEMHWVRQAPGQGLEWMGAIDPKTGGTDYNQKFKDRVTMTRDTSISTAYMELSRLRSDDTAVYYCARDLGYFDVWGQGTLVTVSSASTKGPSVFPLAPSSKSTSGGTAALGCLVKDYFPEPVTVSWNSGALTSGVHTFPAVLQSSGLYSLSSVVTVPSSSLGTQTYICNVNHKPSNTKVDKKVEPKSCDKTHTCPPCPAPELLGPSVFLFPPKPKDTLMISRTPEVTCVVVDVSHEDPEVKFNWYVDGVEVHNAKTKPREEQYNSTYRVVSVLTVLHQDWLNGKEYKCKVSNKALPAPIEKTISKAKGQPREPQVYTLPPSREEMTKNQVSLTCLVKGFYPSDIAVEWESNGQPENNYKTTPPVLDSDGSFFLYSKLTVDKSRWQQGNVFSCSVMHEALHNHYTQKSLSLSPGK
light: DIQMTQSPSSLSASVGDRVTITCRASQDIRSNLNWYQQKPGGAVKLLIYYTSRLHSGVPSRFSGSGSGTDYTLTISSLQPEDFATYFCQQSEKLPRTFGGGTKVEIRRTVAAPSVFIFPPSDEQLKSGTASVVCLLNNFYPREAKVQWKVDNALQSGNSQESVTEQDSKDSTYSLSSTLTLSKADYEKHKVYACEVTHQGLSSPVTKSFNRGECGGGGSGGGGSGGGGSGGGGSDTVLTQSPATLSLSPGERATLSCRASKSVRTGMHWYQQKPGQAPRLLVYGASNLESGIPARFSGSGSGTDFTLTISSLEPEDFATYFCHQSWNHFTFGQGTKLEIKGGGGSGGGGSGGGGSGGGGSQVQLQESGPGLVKPSETLSLTCTVSGFSLTSYNVHWIRQPPGKGLEWIGVIWSGVRTDYNSVLKSRVTISVDTSKNQFSLKLSSVTAADTAVYYCARGTYDANYHDVMDAWGQGTMVTVSS
notes: Anti-GITR/CD137: Ly1630 heavy chain; Ly1630 light chain fused to TM677 scFv (VL-VH)
Consider B3, for which the binding result in experiment [1] was “binds”.

B4: Ly752 (bispecific antibody, human IgG1, kappa)
heavy: QVQLQESGPGLVKPSETLSLTCTVSGFSLTSYNVHWIRQPPGKGLEWIGVIWSGVRTDYNSVLKSRVTISVDTSKNQFSLKLSSVTAADTAVYYCARGTYDANYHDVMDAWGQGTMVTVSSASTKGPSVFPLAPSSKSTSGGTAALGCLVKDYFPEPVTVSWNSGALTSGVHTFPAVLQSSGLYSLSSVVTVPSSSLGTQTYICNVNHKPSNTKVDKKVEPKSCDKTHTCPPCPAPELLGPSVFLFPPKPKDTLMISRTPEVTCVVVDVSHEDPEVKFNWYVDGVEVHNAKTKPREEQYNSTYRVVSVLTVLHQDWLNGKEYKCKVSNKALPAPIEKTISKAKGQPREPQVYTLPPSREEMTKNQVSLTCLVKGFYPSDIAVEWESNGQPENNYKTTPPVLDSDGSFFLYSKLTVDKSRWQQGNVFSCSVMHEALHNHYTQKSLSLSPGK
light: DTVLTQSPATLSLSPGERATLSCRASKSVRTGMHWYQQKPGQAPRLLVYGASNLESGIPARFSGSGSGTDFTLTISSLEPEDFATYFCHQSWNHFTFGQGTKLEIKRTVAAPSVFIFPPSDEQLKSGTASVVCLLNNFYPREAKVQWKVDNALQSGNSQESVTEQDSKDSTYSLSSTLTLSKADYEKHKVYACEVTHQGLSSPVTKSFNRGECGGGGSGGGGSGGGGSGGGGSDIQMTQSPSSLSASVGDRVTITCRASQDIRSNLNWYQQKPGGAVKLLIYYTSRLHSGVPSRFSGSGSGTDYTLTISSLQPEDFATYFCQQSEKLPRTFGGGTKVEIRGGGGSGGGGSGGGGSGGGGSQVQLVQSGAEVKKPGASVKVSCKASGYTFAGFEMHWVRQAPGQGLEWMGAIDPKTGGTDYNQKFKDRVTMTRDTSISTAYMELSRLRSDDTAVYYCARDLGYFDVWGQGTLVTVSS
notes: Anti-GITR/CD137: TM677-derived heavy chain; TM677 light chain fused to Ly1630 scFv (VL-VH)
Regarding B4, the “EC50 (read off the curve)” value in experiment [2] is approximately 0.4 µg/mL.

B5: Ly753 (bispecific antibody, human IgG1, kappa)
heavy: QVQLQESGPGLVKPSETLSLTCTVSGFSLTSYNVHWIRQPPGKGLEWIGVIWSGVRTDYNSVLKSRVTISVDTSKNQFSLKLSSVTAADTAVYYCARGTYDANYHDVMDAWGQGTMVTVSSASTKGPSVFPLAPSSKSTSGGTAALGCLVKDYFPEPVTVSWNSGALTSGVHTFPAVLQSSGLYSLSSVVTVPSSSLGTQTYICNVNHKPSNTKVDKKVEPKSCDKTHTCPPCPAPELLGPSVFLFPPKPKDTLMISRTPEVTCVVVDVSHEDPEVKFNWYVDGVEVHNAKTKPREEQYNSTYRVVSVLTVLHQDWLNGKEYKCKVSNKALPAPIEKTISKAKGQPREPQVYTLPPSREEMTKNQVSLTCLVKGFYPSDIAVEWESNGQPENNYKTTPPVLDSDGSFFLYSKLTVDKSRWQQGNVFSCSVMHEALHNHYTQKSLSLSPGK
light: DTVLTQSPATLSLSPGERATLSCRASKSVRTGMHWYQQKPGQAPRLLVYGASNLESGIPARFSGSGSGTDFTLTISSLEPEDFATYFCHQSWNHFTFGQGTKLEIKRTVAAPSVFIFPPSDEQLKSGTASVVCLLNNFYPREAKVQWKVDNALQSGNSQESVTEQDSKDSTYSLSSTLTLSKADYEKHKVYACEVTHQGLSSPVTKSFNRGECGGGGSGGGGSGGGGSGGGGSQVQLVQSGAEVKKPGASVKVSCKASGYTFAGFEMHWVRQAPGQGLEWMGAIDPKTGGTDYNQKFKDRVTMTRDTSISTAYMELSRLRSDDTAVYYCARDLGYFDVWGQGTLVTVSSGGGGSGGGGSGGGGSGGGGSDIQMTQSPSSLSASVGDRVTITCRASQDIRSNLNWYQQKPGGAVKLLIYYTSRLHSGVPSRFSGSGSGTDYTLTISSLQPEDFATYFCQQSEKLPRTFGGGTKVEIR
notes: Anti-GITR/CD137: TM677-derived heavy chain; TM677 light chain fused to Ly1630 scFv (VH-VL)
Regarding B5, in experiment [2], the 50% effective concentration (EC50 (read off the curve)) was approximately 0.7 µg/mL.

B6: Ly754 (bispecific antibody, human IgG1, kappa)
heavy: QVQLVQSGAEVKKPGASVKVSCKASGYTFAGFEMHWVRQAPGQGLEWMGAIDPKTGGTDYNQKFKDRVTMTRDTSISTAYMELSRLRSDDTAVYYCARDLGYFDVWGQGTLVTVSSASTKGPSVFPLAPSSKSTSGGTAALGCLVKDYFPEPVTVSWNSGALTSGVHTFPAVLQSSGLYSLSSVVTVPSSSLGTQTYICNVNHKPSNTKVDKKVEPKSCDKTHTCPPCPAPELLGPSVFLFPPKPKDTLMISRTPEVTCVVVDVSHEDPEVKFNWYVDGVEVHNAKTKPREEQYNSTYRVVSVLTVLHQDWLNGKEYKCKVSNKALPAPIEKTISKAKGQPREPQVYTLPPSREEMTKNQVSLTCLVKGFYPSDIAVEWESNGQPENNYKTTPPVLDSDGSFFLYSKLTVDKSRWQQGNVFSCSVMHEALHNHYTQKSLSLSPGGGGGSGGGGSGGGGSGGGGSEIVLTQSPATLSLSPGERATLSCRASKSVRTGMHWYQQKPGQAPRLLIYGASNLESGIPARFSGSGSGTDFTLTISSLEPEDFAVYYCQQSWNHFTFGQGTKLEIKGGGGSGGGGSGGGGSGGGGSQVQLQESGPGLVKPSETLSLTCTVSGFSLTSYNVHWIRQPPGKGLEWIGVIWSGVRTDYNSVLKPRVTISVDTSKNQFSLKLSSVTAADTAVYYCARGTYDDNYHDVMDAWGQGTLVTVSS
light: DIQMTQSPSSLSASVGDRVTITCRASQDIRSNLNWYQQKPGGAVKLLIYYTSRLHSGVPSRFSGSGSGTDYTLTISSLQPEDFATYFCQQSEKLPRTFGGGTKVEIRRTVAAPSVFIFPPSDEQLKSGTASVVCLLNNFYPREAKVQWKVDNALQSGNSQESVTEQDSKDSTYSLSSTLTLSKADYEKHKVYACEVTHQGLSSPVTKSFNRGEC
notes: Anti-GITR/CD137: Ly1630 heavy chain fused to TM685 scFv (VL-VH); Ly1630 light chain
For the molecule B6, the concentration giving a half-maximal response (EC50 (read off the curve)) in experiment [2] is approximately 0.2 µg/mL.

Values taken from patent publication US20230406950A1 (LYVGEN BIOPHARMA, published 2023).
